Molecular target: the molecule itself
Test: non-reducing SDS-PAGE with immunoblot

B1: Recombinant AMPKα2 (enzyme, rat, UniProt Q09137 1-552, looked up)
chain: MAEKQKHDGRVKIGHYVLGDTLGVGTFGKVKIGEHQLTGHKVAVKILNRQKIRSLDVVGKIKREIQNLKLFRHPHIIKLYQVISTPTDFFMVMEYVSGGELFDYICKHGRVEEVEARRLFQQILSAVDYCHRHMVVHRDLKPENVLLDAQMNAKIADFGLSNMMSDGEFLRTSCGSPNYAAPEVISGRLYAGPEVDIWSCGVILYALLCGTLPFDDEHVPTLFKKIRGGVFYIPEYLNRSIATLLMHMLQVDPLKRATIKDIREHEWFKQDLPSYLFPEDPSYDANVIDDEAVKEVCEKFECTESEVMNSLYSGDPQDQLAVAYHLIIDNRRIMNQASEFYLASSPPTGSFMDDMAMHIPPGLKPHPERMPPLIADSPKARCPLDALNTTKPKSLAVKKAKWHLGIRSQSKPYDIMAEVYRAMKQLDFEWKVVNAYHLRVRRKNPVTGNYVKMSLQLYLVDNRSYLLDFKSIDDEVVEQRSGSSTPQRSCSAAGLHRPRSSVDSSTAENHSLSGSLTGSLTGSTLSSASPRLGSHTMDFFEMCASLITALAR
B1: binds.

— paper PMC3937768 (Cell metabolism, 2014)
